± gives the uncertainty stated by the source.
Assay: self-splicing fitness, log relative to wild type (ln ratio); higher = more splicing; Tetrahymena group I intron in knt gene, E. coli kanamycin selection, DiMSum; sequences stand for … in CUCUCU…GGAGGGAAAAGUUAUCAGGCAUGCACCUGGUAGCUAGUCUUUAAACCAAUAGAUUGCAUCGGUUUAAAAGGCAAGACCGUCAAAUUGCGGGAAAGGGGUCAACAGCCGUUCAGUACCAAGUCUCAGGGGAAACUUUGAGAUGGCCUUGCAAAGGGUAUGGUAAUAAGCUGACGGACAUGGUCCUAACCACGCAGCCAAGUCCUAAGUCAACAGAUCUUCUGUUGAUAUGGAUGCAGUUCACAGACUAAAUGUCGGUCGGGGAAGAUGUAUUCUUCUCAUAAGAUAUAGUCGGACCUCUCCUUAAUGGGAGCUAGCGGAUGAAGUGAUGCAACACUGGAGCCGCUGGGAACUAAUUUGUAUGCGAAAGUAUAUUGAUUAGUUUUGGAGUACUCGUGGUCG
Outline: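 Fitness was computed with DiMSum as the error-weighted combination of replicate fold changes, kanamycin versus none, each normalised to wild type. The library randomised all eight intron nucleotides of the P1ex region, with the intron placed in the knt kanamycin-resistance gene on pET-22b(+) in E. coli BL21(DE3). Six replicate transformations were grown overnight at 37°C or 30°C on LB agar with or without 25 μg/mL kanamycin, plus 100 μg/mL carbenicillin, 50 μM IPTG and 0.2% rhamnose. Pooled colonies were amplicon-sequenced on an Illumina HiSeq 2500.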

Row | Sequence | self-splicing fitness (ln) (30 °C) | self-splicing fitness (ln) (37 °C)
1 | CUGUAGCAAUAUUACGCUCU | -3.47 ± 0.39 | –
2 | CCCAAGCAAUAUUACGAGGG | -4.18 ± 0.17 | -2.53 ± 0.16
3 | CAUGAGCAAUAUUACGUAAC | -3.38 ± 0.35 | -2.61 ± 0.31
4 | UUCCAGCAAUAUUACGCAGU | -3.23 ± 0.17 | -2.79 ± 0.28
5 | UGGCAGCAAUAUUACGCGAU | -2.67 ± 0.18 | -2.01 ± 0.21
6 | CAGCAGCAAUAUUACGCUGA | -3.02 ± 0.22 | -2.09 ± 0.18
7 | UCUAAGCAAUAUUACGGGUU | -3.97 ± 0.17 | -2.93 ± 0.19
8 | GCAAAGCAAUAUUACGACUC | -0.773 ± 0.13 | 0.0939 ± 0.11
9 | CUUUAGCAAUAUUACGGAUG | -0.333 ± 0.067 | 0.313 ± 0.098
10 | CAUCAGCAAUAUUACGCAAU | -4.01 ± 0.24 | -3.15 ± 0.17
11 | GUCAAGCAAUAUUACGCGAA | -1.88 ± 0.085 | -0.888 ± 0.091
12 | CACAAGCAAUAUUACGUAAG | -0.372 ± 0.047 | 0.157 ± 0.065
13 | CUCAAGCAAUAUUACGGUCC | -3.02 ± 0.22 | 0.396 ± 0.18
14 | CAUGAGCAAUAUUACGCAAG | -3.15 ± 0.13 | -1.69 ± 0.12
15 | CUACAGCAAUAUUACGUCGA | -3.59 ± 0.22 | -3.7 ± 0.3
16 | CAAAAGCAAUAUUACGAAGA | -2.23 ± 0.28 | -1.43 ± 0.17
17 | AUUUAGCAAUAUUACGACAA | -1.36 ± 0.2 | -0.936 ± 0.22
18 | AUUUAGCAAUAUUACGCCUC | – | -0.949 ± 0.27
19 | GCCCAGCAAUAUUACGACUC | -0.305 ± 0.059 | 0.916 ± 0.087
20 | UAUCAGCAAUAUUACGGCCU | -1.64 ± 0.1 | 0.0592 ± 0.12
21 | UAUGAGCAAUAUUACGGUAC | -4.01 ± 0.43 | -2.66 ± 0.48

Row | Sequence | self-splicing fitness (ln) (30 °C) | self-splicing fitness (ln) (37 °C)
22 | GUUGAGCAAUAUUACGGAAC | -1.6 ± 0.43 | –
23 | UGCGAGCAAUAUUACGUAGU | – | -1.9 ± 0.19
24 | CGGUAGCAAUAUUACGCCGG | -1.45 ± 0.078 | -0.573 ± 0.12
25 | GACAAGCAAUAUUACGCUUG | -4.51 ± 0.29 | -2.76 ± 0.27
26 | GUUUAGCAAUAUUACGUAUU | -2.91 ± 0.21 | -1.38 ± 0.17
27 | GUGAAGCAAUAUUACGAUCA | -0.337 ± 0.11 | 0.465 ± 0.13
28 | UUCGAGCAAUAUUACGAAUC | – | -2.97 ± 0.4
29 | AUCCAGCAAUAUUACGACUU | 0.167 ± 0.074 | 0.32 ± 0.086
30 | GGGCAGCAAUAUUACGAUUA | -1.27 ± 0.14 | -1.63 ± 0.15
31 | UUAUAGCAAUAUUACGUUGU | -3.44 ± 0.27 | -2.38 ± 0.23
32 | GCGUAGCAAUAUUACGGUUG | -2.96 ± 0.13 | -1.75 ± 0.14
33 | UCUAAGCAAUAUUACGAUUG | -3.4 ± 0.18 | -2.26 ± 0.17
34 | AACUAGCAAUAUUACGUUGC | -3.47 ± 0.17 | -1.9 ± 0.22
35 | UCAUAGCAAUAUUACGACAA | -2.43 ± 0.26 | -1.06 ± 0.15
36 | GUAAAGCAAUAUUACGUCGC | -1.35 ± 0.11 | -0.63 ± 0.13
37 | UUACAGCAAUAUUACGCGAU | -2.28 ± 0.18 | -1.75 ± 0.16
38 | UAGAAGCAAUAUUACGUUCA | -0.483 ± 0.063 | 0.196 ± 0.082
39 | GCCCAGCAAUAUUACGGCCU | -2.68 ± 0.16 | -0.992 ± 0.13
40 | UUACAGCAAUAUUACGAAAG | -2.87 ± 0.29 | -2.73 ± 0.33
41 | GAAGAGCAAUAUUACGUGUA | -2.66 ± 0.2 | -2.76 ± 0.19
42 | UCUGAGCAAUAUUACGUAAC | -3.44 ± 0.33 | -1.55 ± 0.2

Row | Sequence | self-splicing fitness (ln) (30 °C) | self-splicing fitness (ln) (37 °C)
43 | AAACAGCAAUAUUACGAACU | -0.252 ± 0.065 | -0.265 ± 0.077
44 | CAAAAGCAAUAUUACGCCUC | -3.57 ± 0.29 | -1.76 ± 0.25
45 | CUCCAGCAAUAUUACGGCGA | -2.16 ± 0.22 | -1.6 ± 0.2
46 | CUUCAGCAAUAUUACGCUAU | -3.33 ± 0.37 | -1.99 ± 0.25
47 | AGGGAGCAAUAUUACGGAGG | – | -1.74 ± 0.43
48 | AGCCAGCAAUAUUACGUGAG | -2.79 ± 0.1 | -0.902 ± 0.11
49 | AUGAAGCAAUAUUACGGCGA | 0.267 ± 0.082 | 0.989 ± 0.11
50 | CCGCAGCAAUAUUACGAUAA | -2 ± 0.19 | -1.2 ± 0.24
51 | AGCUAGCAAUAUUACGGAGU | -2.94 ± 0.22 | -2.18 ± 0.24
52 | CACUAGCAAUAUUACGAGGG | -3.29 ± 0.18 | -1.34 ± 0.15
53 | GAGUAGCAAUAUUACGUUUA | -3.09 ± 0.25 | -1.63 ± 0.19
54 | GCUUAGCAAUAUUACGGGAU | -1.56 ± 0.074 | -0.453 ± 0.09
55 | CCGGAGCAAUAUUACGGUCG | -1.22 ± 0.097 | -0.072 ± 0.13
56 | AGCGAGCAAUAUUACGGGCA | -0.63 ± 0.061 | -0.562 ± 0.075
57 | CUAGAGCAAUAUUACGGCCU | -2.72 ± 0.44 | -1.69 ± 0.44
58 | UAGGAGCAAUAUUACGAAUU | -2.72 ± 0.3 | -2.22 ± 0.48
59 | UAGCAGCAAUAUUACGGAGG | -3.29 ± 0.15 | -2.6 ± 0.22
60 | GGAUAGCAAUAUUACGUGCA | -1.3 ± 0.11 | 0.203 ± 0.12
61 | GUAGAGCAAUAUUACGCACA | -0.23 ± 0.14 | -0.117 ± 0.14
62 | CGAUAGCAAUAUUACGUAAA | -2.6 ± 0.32 | -0.509 ± 0.26

From the supplement of paper PMC7877785
